Laboratory results reported in patent publication US7906628B2, “Targeting proteins to deliver therapeutic or diagnostic reagents” (The Board of Regents, The University of Texas System, priority 2002, dated 2011).

Experiments:
HUVECs = assay: Migration assay (VEGF-induced chemotaxis, Boyden chamber); assay type: cell-based, human; details: supernatant from plasmid-transfected 293T cells; 10 ng/ml VEGF as chemotactant; FIGS. 2E-2H
Protocol: After trypsinizing, washing, and diluting cells in M199 medium containing 0.5% FBS, 10,000 cells were seeded on the upper chamber wells, together with supernatant collected from 293T transfected with different plasmid (endostatin, endostatin-CD, and CD). M199 medium containing 2% FBS plus 10 ng/ml VEGF was placed in the lower chamber as a chemotactant. The cell-containing compartments were separated from the chemotactant with polycarbonate filter of 8 um pore size. The chamber was incubated at 37° C. for 6-8 hr. After discarding the non-migrated cells and washing the upper wells with PBS, the filters were scraped with a plastic blade, fixed in 4% formaldehyde in PBS, stained with DAPI fluorescent stain and placed on a glass slide. By using a fluorescent high power field, several independent homogenous images were recorded. Five fields were viewed, and […] were counted and averaged. All assays were performed in triplicate.

[1] = test system: human umbilical endothelial cells (HUVEC); assay: Endothelial tube assay; assay type: cell-based; details: supernatant from plasmid-transfected 293T cells; FIGS. 2A-2D
Protocol: Endothelial tube assay: Matrigel (Collaborative Biomolecules, Bedford, Mass.) was added (50 μl) to each well of a 96-well plate and allowed to polymerize. A suspension of 5,000 human umbilical endothelial cells (HUVEC) in EGM-2 medium without antibiotic was passed into each well coated with matrigel. The cells were treated with supernatants collected from different plasmid (endostatin, endostatin-CD, and CD) transfected 293T cells. All assays were performed in triplicate. Cell were incubated for 12-24 hr at 37° C. and viewed using a microscope. The cells were then photographed. Five fields were viewed, and tubes were counted and averaged.

B1: endostatin: endogenous angiogenesis inhibitor, 18 KD, used as comparator (protein, listed as Homo sapiens)
chain: IVNLKDELLFPSWEALFSGSEGPLKPGARIFSFDGKDVLRHPTRPQKSVWHGSDPNGRRLTESYCETWRTEAPSATGQASSLLGGRLLGQSAASSHHAYIVL
- HUVEC cell migration (HUVECs): inhibitory effect
- HUVEC cell tube formation [1]: inhibitory effect
